# Data reported in patent publication US5534407.
# Legend:
# [1] = system: T7 gene 2.5 protein (Bacteriophage T7); details: renaturation t1/2 by agarose gel annealing assay; 10 mM MgCl2, 50 mM NaCl, pH 7.5, 37 C, no ATP; none >30,000 min
# [2] = system: RecA protein (Escherichia coli); details: renaturation t1/2 with about 500 uM ATP; little renaturation without ATP; 10 mM MgCl2, 50 mM NaCl, 37 C
# [3] = system: T4 gene 32 protein (Bacteriophage T4); details: renaturation t1/2; about 1% annealed after 60 min; 10 mM MgCl2, 50 mM NaCl, 37 C
substance,measurement,setting,value
167-nt fragment (primer-extended to XmnI site) plus circular M13 mGP1-2 ssDNA,activity,[1],1 min
same,activity,[2],60 min
same,activity,[3],3000 min
